From paper PMC1557820 (Nucleic Acids Research, 2006)

Target: T1, N-terminal domain of S. cerevisiae methionyl-tRNA synthetase (residues 1-160) (S. cerevisiae, UniProt P00958 1-160)
T1 sequence (looked up): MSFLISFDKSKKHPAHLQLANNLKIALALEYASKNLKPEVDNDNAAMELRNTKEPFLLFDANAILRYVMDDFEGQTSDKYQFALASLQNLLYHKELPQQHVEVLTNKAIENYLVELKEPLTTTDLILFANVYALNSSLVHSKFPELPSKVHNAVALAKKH
Test: SEC

B1: N-terminal domain of S. cerevisiae Arc1p (residues 1-122) (domain or fragment, UniProt P46672 1-122, looked up)
chain: MSDLVTKFESLIISKYPVSFTKEQSAQAAQWESVLKSGQIQPHLDQLNLVLRDNTFIVSTLYPTSTDVHVFEVALPLIKDLVASSKDVKSTYTTYRHILRWIDYMQNLLEVSSTDKLEINHD
- stoichiometry N: 1
